T1: recombinant PPTC7 (31-304) wild type (human, UniProt Q8NI37 31-304)
T1 construct: PPTC7, human, residues 31-304; pGEX-6P-2 vector; also called PPTC7 wild-type; GST-PPTC7(31-304); source: E. coli BL21(DE3), purified (glutathione-sepharose, PreScission cleavage, Superdex 75)
T1 sequence (looked up): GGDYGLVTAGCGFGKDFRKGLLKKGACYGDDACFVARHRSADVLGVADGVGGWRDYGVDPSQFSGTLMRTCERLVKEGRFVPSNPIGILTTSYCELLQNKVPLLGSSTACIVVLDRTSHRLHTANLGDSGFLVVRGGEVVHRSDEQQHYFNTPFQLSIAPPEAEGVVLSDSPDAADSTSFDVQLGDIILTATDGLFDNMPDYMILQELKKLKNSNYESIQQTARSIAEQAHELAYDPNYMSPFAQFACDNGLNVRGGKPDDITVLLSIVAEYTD

T2: PPTC7 (31-304), wild type (human, UniProt Q8NI37 31-304)
T2 construct: human PPTC7, residues 31-304, from pGEX-6P-2 GST-PPTC7(31-304); GST removed with PreScission protease; assayed with 10 mM MnCl2 in the buffer; also called PPTC7 + Mn2+; Protein Phosphatase Targeting COQ7; source: E. coli BL21(DE3), purified (glutathione-sepharose, PreScission cleavage, Superdex 75 gel filtration); not shown: GST, N-terminal, cleaved
T2 sequence (looked up): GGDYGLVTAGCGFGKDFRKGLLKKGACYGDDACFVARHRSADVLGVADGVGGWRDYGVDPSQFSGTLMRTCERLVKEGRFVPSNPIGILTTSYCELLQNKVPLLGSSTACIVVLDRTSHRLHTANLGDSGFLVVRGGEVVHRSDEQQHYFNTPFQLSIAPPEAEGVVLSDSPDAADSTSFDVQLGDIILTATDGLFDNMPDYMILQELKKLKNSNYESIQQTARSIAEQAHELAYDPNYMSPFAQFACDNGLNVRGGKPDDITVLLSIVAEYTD

T3: PPTC7 (31-304) D290N (human, UniProt Q8NI37 31-304, D290N)
T3 construct: human PPTC7, residues 31-304, from pGEX-6P-2 GST-PPTC7(31-304)(D290N); The purification is described for GST-PPTC7 (31-304); also called PPTC7 D290N; PPTC7-D290N; source: E. coli BL21(DE3), purified (glutathione-sepharose, PreScission cleavage, Superdex 75 gel filtration); not shown: GST, N-terminal, cleaved
T3 sequence (looked up): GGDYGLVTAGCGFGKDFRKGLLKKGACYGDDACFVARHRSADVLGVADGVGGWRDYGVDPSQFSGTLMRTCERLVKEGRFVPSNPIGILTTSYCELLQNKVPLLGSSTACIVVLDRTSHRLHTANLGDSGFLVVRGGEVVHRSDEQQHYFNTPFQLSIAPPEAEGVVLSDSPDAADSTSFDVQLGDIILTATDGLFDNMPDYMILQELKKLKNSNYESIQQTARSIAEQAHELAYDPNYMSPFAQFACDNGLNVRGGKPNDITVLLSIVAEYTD


Columns and labels:
Conditions in all cases: both partners purified
[1] = target: T1, recombinant PPTC7 (31-304) wild type; assay: ITC; 500 µM peptide titrated into 25 µM PPTC7; 25 °C; 50 mM HEPES pH 7.5, 300 mM NaCl, 10 mM MnCl2, 2 mM β-mercaptoethanol; MicroCal PEAQ-ITC
[2] = target: T2, PPTC7 (31-304), wild type; assay: ITC; 500 µM peptide (syringe) titrated into 25 µM PPTC7 (cell); 25 °C; 50 mM HEPES pH 7.5, 300 mM NaCl, 10 mM MnCl2, 2 mM β-mercaptoethanol; MicroCal PEAQ-ITC
PPTC7 (31-304) D290N = target: T3, PPTC7 (31-304) D290N; assay: as above

| Kd [1] | stoichiometry N [2] | Kd (PPTC7 (31-304) D290N) | stoichiometry N (PPTC7 (31-304) D290N) | Binder |
| --- | --- | --- | --- | --- |
| 37.5 µM |  |  |  | NIX peptide (A138-R163) (also called BNIP3L(A138-R163); source: synthetic peptide) peptide: not shown |
|  | 1 | 35.9 ± 1.09 µM | 1 | BNIP3L(A138-R163) peptide (human NIX (BNIP3L), residues A138-R163; also called NIX; NIX peptide; source: synthetic peptide) peptide: not shown |
|  | 1 |  |  | BNIP3(N113-R139) peptide (human BNIP3, residues N113-R139 (Q12983, 194 aa); also called BNIP3 peptide; source: synthetic peptide) peptide: not shown |
| 20.1 µM |  |  |  | BNIP3 peptide (N113-R139) (also called BNIP3(N113-R139); source: synthetic peptide) peptide: not shown |
